The test concerns the target T1, FLAG-tagged Parkin (Wild type) (human, UniProt O60260 1-465).
T1 construct: whole, on cells; Plasmid described in Imai et al. 2000; also called FLAG-Parkin; the full-length Parkin; not shown: FLAG tag
Kind of test: co-immunoprecipitation from 293T cells (FLAG-IP, anti-Myc Western blot). From the text: We have previously reported that the expression of Parkin is increased due to the stress induced by misfolded proteins, so as to have an effect of suppressing cell death resulting from the stress induced by misfolded proteins (Imai, Y. et al. (2000) J Biol Chem 275, 35661-35664). Against endoplasmic reticulum stress, a series of unfolded protein responses (UPR) including endoplasmic reticulum (ER)-associated degradation (ERAD), which regulate gene expression, are induced (Travers, K. J. et al., (2000) Cell 101, 249-258). ERAD degrades misfolded membrane proteins or secretory proteins with the degradation system within the cytoplasm (Plemper, R. K. et al., (1999) Trends Biochem Sci 24, 266-270). ERAD substrate was transported back through the membrane of the endoplasmic reticulum to the cytoplasm, in which it is ubiquitinated and degraded by the action of UBC6, UBC7, proteasome complex and the like (Biederer, T. et al., (1997) Science 278, 1806-1809; Bordallo, J. et al., (1998) Mol Biol Cell 9, 209-222; Gilon, T. et al., (2000) Mol Cell Biol 20, 7214-7219; Wilhovsky, S. et al., (2000) Mol Biol Cell 11, 1697-1708). […] Immunoprecipitates (FLAG-IP) immunoprecipitated with anti-FLAG monoclonal antibodies and soluble total cell extract (Total lysate) were analyzed by Western blotting (WB) using anti-FLAG or anti-Myc antibodies.

The source of these data is patent US20060051835A1 (published 2006).

T1 sequence (O60260 whole entry): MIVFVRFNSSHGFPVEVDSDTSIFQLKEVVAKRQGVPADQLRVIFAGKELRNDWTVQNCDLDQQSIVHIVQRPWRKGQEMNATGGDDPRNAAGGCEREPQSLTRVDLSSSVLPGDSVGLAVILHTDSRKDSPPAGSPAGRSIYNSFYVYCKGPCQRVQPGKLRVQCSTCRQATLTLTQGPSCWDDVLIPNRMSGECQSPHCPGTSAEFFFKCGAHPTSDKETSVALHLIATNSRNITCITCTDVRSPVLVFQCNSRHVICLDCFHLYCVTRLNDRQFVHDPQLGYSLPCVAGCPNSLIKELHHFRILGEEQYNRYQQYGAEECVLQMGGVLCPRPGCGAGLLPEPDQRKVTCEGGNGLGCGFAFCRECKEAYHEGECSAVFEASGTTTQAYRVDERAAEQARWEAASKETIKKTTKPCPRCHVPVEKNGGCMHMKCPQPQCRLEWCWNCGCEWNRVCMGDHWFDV

B1: Myc-E2-25K (enzyme, human, UniProt P61086 2-200, looked up)
chain: ANIAVQRIKREFKEVLKSEETSKNQIKVDLVDENFTELRGEIAGPPDTPYEGGRYQLEIKIPETYPFNPPKVRFITKIWHPNISSVTGAICLDILKDQWAAAMTLRTVLLSLQALLAAAEPDDPQDAVVANQYKQNPEMFKQTARLWAHVYAGAPVSSPEYTKKIENLCAMGFDRNAVIVALSSKSWDVETATELLLSN
notes: whole, on cells; not shown: Myc tag
Turning to B1, the binding result was “no binding”.

B2: Myc-UBCH6 (enzyme, UniProt P51965 2-193, looked up)
chain: SDDDSRASTSSSSSSSSNQQTEKETNTPKKKESKVSMSKNSKLLSTSAKRIQKELADITLDPPPNCSAGPKGDNIYEWRSTILGPPGSVYEGGVFFLDITFTPEYPFKPPKVTFRTRIYHCNINSQGVICLDILKDNWSPALTISKVLLSICSLLTDCNPADPLVGSIATQYMTNRAEHDRMARQWTKRYAT
notes: as for B1
As for B2, the binding result is reported as “no binding”.
